The record followed here is patent US20030144205A1.

This test deals with SV40 large T antigen (pGADT7-SV40 large T antigen) (SV40) (UniProt P03070). Nature of the test: cell-based or functional assay.
Chain of SV40 large T antigen (pGADT7-SV40 large T antigen) (SV40) (P03070 86-708 limits assumed): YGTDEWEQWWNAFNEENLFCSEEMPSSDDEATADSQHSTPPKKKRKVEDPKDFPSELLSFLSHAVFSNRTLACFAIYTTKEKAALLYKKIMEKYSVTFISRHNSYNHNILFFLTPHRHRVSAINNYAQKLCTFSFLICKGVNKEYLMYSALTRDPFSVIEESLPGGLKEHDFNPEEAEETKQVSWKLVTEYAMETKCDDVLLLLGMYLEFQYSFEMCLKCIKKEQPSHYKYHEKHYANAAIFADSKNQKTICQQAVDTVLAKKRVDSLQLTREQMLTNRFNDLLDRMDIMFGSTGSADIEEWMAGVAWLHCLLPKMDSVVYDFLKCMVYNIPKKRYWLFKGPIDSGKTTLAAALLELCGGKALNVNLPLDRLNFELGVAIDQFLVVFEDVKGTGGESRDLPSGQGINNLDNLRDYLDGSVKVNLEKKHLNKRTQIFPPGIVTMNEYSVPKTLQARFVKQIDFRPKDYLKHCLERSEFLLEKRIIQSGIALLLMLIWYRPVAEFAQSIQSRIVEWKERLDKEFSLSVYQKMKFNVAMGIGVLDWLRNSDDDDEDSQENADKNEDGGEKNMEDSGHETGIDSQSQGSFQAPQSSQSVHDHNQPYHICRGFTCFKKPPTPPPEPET

“murine p53 (pGBKT7-murine p53) (from UniProt P02340 72-390)”: the fold increase in fluorescence, an indication of yeast growth in selection media (Fluorescence(t40)/Fluorescence(t0)) was over 5 fold.
